Results as given in patent US20250003951A1 (OXFORD UNIVERSITY INNOVATION, published 2025).
One block for each binder: values may come before it.

Tests used:
Experiment in all cases: cell-based or functional assay
[1] = molecular target: T1, OX289-284 (human)
T1 peptide: GETGMFSLSTIRGHQYATY

[2] = molecular target: T2, OX289-067 (human)
T2 peptide: VATFPVYTMVAIPIVCKD

[3] = molecular target: T3, OX289-040 (human)
T3 peptide: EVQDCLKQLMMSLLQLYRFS

[4] = molecular target: T4, OX802-322 (human)
T4 peptide: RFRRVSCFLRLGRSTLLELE

[5] = molecular target: T5, OX802-321 (human)
T5 peptide: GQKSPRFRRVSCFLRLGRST

[6] = molecular target: T6, OX628-308 (human)
T6 peptide: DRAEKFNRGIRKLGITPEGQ

[7] = molecular target: T7, OX628-309 (human)
T7 peptide: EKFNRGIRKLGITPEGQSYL

[8] = molecular target: T8, OX885-559 (human)
T8 peptide: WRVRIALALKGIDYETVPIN

[9] = molecular target: T9, OX885-560 (human)
T9 peptide: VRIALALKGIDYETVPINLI

[10] = molecular target: T10, OX289-009 (human)
T10 peptide: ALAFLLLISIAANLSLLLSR

B1: OX289 Peptide 284 clone 1 TCR (TCR)
TCR alpha: RKEVEQDPGPFNVPEGATVAFNCTYSNSASQSFFWYRQDCRKEPKLLMSVYSSGNEDGRFTAQLNRASQYISLLIRDSKLSDSATYLCVVNKATSGTYKYIFGTGTRLKVLANIQNPDPAVYQLRD
TCR beta 1: AVVSQHPSWVICKSGTSVKIECRSLDFQATTMFWYRQFPKQSLMLMATSNEGSKATYEQGVEKDKFLINHASLTLSTLTVTSAHPEDSSFYICSARDREAAGYGYTFGSGTRLTVVEDLNKVFPPEVAVFEPS
TCR beta 2: AVVSQHPSWVICKSGTSVKIECRSLDFQATTMFWYRQFPKQSLMLMATSNEGSKATYEQGVEKDKFLINHASLTLSTLTVTSAHPEDSSFYICSARLAHSGTNTGELFFGEGSRLTVLEDLKNVFPPEVAVFEPS
Clone size (percent repertoire), IFNγ+ sorted T cells after peptide stimulation [1]: 96 % of repertoire

B2: OX289 Peptide 67 clone 1 TCR (TCR)
TCR alpha 1: QLLEQSPQFLSIQEGENLTVYCNSSSVFSSLQWYRQEPGEGPVLLVTVVTGGEVKKLKRLTFQFGDARKDSSLHITAAQPGDTGLYLCAGLDDKIIFGKGTRLHILPNIQNPDPAVYQLRD
TCR alpha 2: GIQVEQSPPDLILQEGANSTLRCNFSDSVNNLQWFHQNPWGQLINLFYIPSGTKQNGRLSATTVATERYSLLYISSSQTTDSGVYFCAVAGSNYQLIWGAGTKLIIKPDIQNPDPAVYQLRD
TCR beta: EAGVAQSPRYKIIEKRQSVAFWCNPISGHATLYWYQQILGQGPKLLIQFQNNGVVDDSQLPKDRFSAERLKGVDSTLKIQPAKLEDSAVYLCASSDPISGRGDEQFFGPGTRLTVLEDLKNVFPPEVAVFEPS
Clone size (percent repertoire), IFNγ+ sorted T cells after peptide stimulation [2]: 81.1 % of repertoire

B3: OX289 Peptide 40 clone 1 TCR (TCR, V domains shown)
V domain 1: NSVTQMEGPVTLSEEAFLTINCTYTATGYPSLFWYVQYPGEGLQLLLKATKADDKGSNKGFEATYRKETTSFHLEKGSVQVSDSAVYFCALIPTGGGNKLTFGTGTQLKVEL
V domain 2: AVVSQHPSWVICKSGTSVKIECRSLDFQATTMFWYRQFPKQSLMLMATSNEGSKATYEQGVEKDKFLINHASLTLSTLTVTSAHPEDSSFYICSARLAHSGTNTGELFFGEGSRLTVLE
Clone size (percent repertoire), IFNγ+ sorted T cells after peptide stimulation [3]: 85.2 % of repertoire

B4: OX802 Peptides 321/322 clone 2 TCR (TCR, V domains shown)
V domain 1: KDQVFQPSTVASSEGAVVEIFCNHSVSNAYNFFWYLHFPGCAPRLLVKGSKPSQQGRYNMTYERFSSSLLILQVREADAAVYYCAVTGGYNKLIFGAGTRLAVHP
V domain 2: EAGVVQSPRYKIIEKKQPVAFWCNPISGHNTLYWYLQNLGQGPELLIRYENEEAVDDSQLPKDRFSAERLKGVDSTLKIQPAELGDSAVYLCASSLEAGDSYEQYFGPGTRLTVTE
Clone size (percent repertoire), IFNγ+ sorted T cells after peptide stimulation [4]: 20 % of repertoire
Clone size (percent repertoire), IFNγ+ sorted T cells after peptide stimulation [5]: 20 % of repertoire

B5: OX802 Peptides 321/322 clone 1 TCR (TCR)
TCR alpha 1: AGQSLEQPSEVTAVEGAIVQINCTYQTSGFYGLSWYQQHDGGAPTFLSYNALDGLEETGRFSSFLSRSDSYGYLLLQELQMKDSASYFCAVLKKGYALNFGKGTSLLVTPHIQNPDPAVYQLRD
TCR alpha 2: KDQVFQPSTVASSEGAVVEIFCNHSVSNAYNFFWYLHFPGCAPRLLVKGSKPSQQGRYNMTYERFSSSLLILQVREADAAVYYCAVAGGYNKLIFGAGTRLAVHPYIQNPDPAVYQLRD
TCR beta: EAGVVQSPRYKIIEKKQPVAFWCNPISGHNTLYWYLQNLGQGPELLIRYENEEAVDDSQLPKDRFSAERLKGVDSTLKIQPAELGDSAVYLCASSLEAGDSYEQYFGPGTRLTVTEDLKNVFPPEVAVFEPS
Clone size (percent repertoire), IFNγ+ sorted T cells after peptide stimulation [4]: 47.4 % of repertoire
Clone size (percent repertoire), IFNγ+ sorted T cells after peptide stimulation [5]: 47.4 % of repertoire

B9: OX289 Peptide 9 clone 1 TCR (TCR, V domains shown)
V domain 1: RKEVEQDPGPFNVPEGATVAFNCTYSNSASQSFFWYRQDCRKEPKLLMSVYSSGNEDGRFTAQLNRASQYISLLIRDSKLSDSATYLCVVDFYTSGTYKYIFGTGTRLKVLA
V domain 2: GAVVSQHPSRVICKSGTSVKIECRSLDFQATTMFWYRQFPKQSLMLMATSNEGSKATYEQGVEKDKFLINHASLTLSTLTVTSAHPEDSSFYICSARDREAAGYGYTFGSGTRLTVVE
Clone size (percent repertoire), IFNγ+ sorted T cells after peptide stimulation [10]: 91.1 % of repertoire

Other lines, results leading:

Clone size (percent repertoire), IFNγ+ sorted T cells after peptide stimulation [6]: 76.1 % of repertoire
Clone size (percent repertoire), IFNγ+ sorted T cells after peptide stimulation [7]: 76.1 % of repertoire
B6: OX885 Peptides OX628-308/309 clone 1 TCR (TCR, V domains shown)
V domain 1: KTTQPPSMDCAEGRAANLPCNHSTISGNEYVYWYRQIHSQGPQYIIHGLKNNETNEMASLIITEDRKSSTLILPHATLRDTAVYYCIVRVAVTNAGKSTFGDGTTLTVKP
V domain 2: EAQVTQNPRYLITVTGKKLTVTCSQNMNHEYMSWYRQDPGLGLRQIYYSMNVEVTDKGDVPEGYKVSRKEKRNFPLILESPSPNQTSLYFCASRYYSADTQYFGPGTRLTVLE

Clone size (percent repertoire), IFNγ+ sorted T cells after peptide stimulation [8]: 96.5 % of repertoire
Clone size (percent repertoire), IFNγ+ sorted T cells after peptide stimulation [9]: 96.5 % of repertoire
B7: OX885 Peptides 559/560 clone 1 TCR (TCR, V domains shown)
V domain 1: GIQVEQSPPDLILQEGANSTLRCNFSDSVNNLQWFHQNPWGQLINLFYIPSGTKQNGRLSATTVATERYSLLYISSSQTTDSGVYFCAARRVDNNNDMRFGAGTRLTVKP
V domain 2: DARVTQTPRHKVTEMGQEVTMRCQPILGHNTVFWYRQTMMQGLELLAYFRNRAPLDDSGMPKDRFSAEMPDATLATLKIQPSEPRDSAVYFCASGLAQPQHFGDGTRLSILE

Clone size (percent repertoire), IFNγ+ sorted T cells after peptide stimulation [6]: 16.2 % of repertoire
Clone size (percent repertoire), IFNγ+ sorted T cells after peptide stimulation [7]: 16.2 % of repertoire
B8: OX885 Peptides OX628-308/309 clone 2 TCR (TCR, V domains shown)
V domain 1: AQSVTQLDSQVPVFEEAPVELRCNYSSSVSVYLFWYVQYPNQGLQLLLKYLSGSTLVKGINGFEAEFNKSQTSFHLRKPSVHISDTAEYFCAVSGVLTGGGNKLTFGTGTQLKVEL
V domain 2: DAGITQSPRYKITETGRQVTLMCHQTWSHSYMFWYRQDLGHGLRLIYYSAAADITDKGEVPDGYVVSRSKTENFPLTLESATRSQTSVYFCASSEGTVSNQPQHFGDGTRLSILE
